{"source": "paper PMC4865633", "about": "“Data on dimer formation between importin α subtypes” (Data in Brief, 2016)", "binders": {"B1": {"name": "GST-h-importin α3 (KPNA4, Qip1) (natural protein)", "chain": "MADNEKLDNQRLKNFKNKGRDLETMRRQRNEVVVELRKNKRDEHLLKRRNVPHEDICEDSDIDGDYRVQNTSLEAIVQNASSDNQGIQLSAVQAARKLLSSDRNPPIDDLIKSGILPILVHCLERDDNPSLQFEAAWALTNIASGTSEQTQAVVQSNAVPLFLRLLHSPHQNVCEQAVWALGNIIGDGPQCRDYVISLGVVKPLLSFISPSIPITFLRNVTWVMVNLCRHKDPPPPMETIQEILPALCVLIHHTDVNILVDTVWALSYLTDAGNEQIQMVIDSGIVPHLVPLLSHQEVKVQTAALRAVGNIVTGTDEQTQVVLNCDALSHFPALLTHPKEKINKEAVWFLSNITAGNQQQVQAVIDANLVPMIIHLLDKGDFGTQKEAAWAISNLTISGRKDQVAYLIQQNVIPPFCNLLTVKDAQVVQVVLDGLSNILKMAEDEAETIGNLIEECGGLEKIEQLQNHENEDIYKLAYEIIDQFFSSDDIDEDPSLVPEAIQGGTFGFNSSANVPTEGFQF", "notes": "human importin α3 (KPNA4, Qip1); plasmid pGEX2T-human-importin α3, obtained as described previously; also called GST-importin α3; IMPα3; source: E. coli Rosetta, purified on GSH beads, bacterially expressed and purified recombinant protein"}, "B2": {"name": "FLAG-h-importin α8 (KPNA7) (natural protein)", "chain": "not shown", "notes": "human importin α8 (KPNA7), amplified from pcDNA5/3xFLAG-h-importin α8 with primers from the start codon to the stop codon, in pGEX6P3; Cleavage of GST is told in general in the methods; also called FLAG-importin α8; IMPα8; source: E. coli Rosetta, GST fusion purified on GSH beads, bacterially expressed and purified recombinant protein; not shown: FLAG, N-terminal, kept"}, "B3": {"name": "SV40TNLS-GFP (domain or fragment)", "chain": "PPKKKRKVED", "notes": "also called SV40TNLS substrate; SV40 large T antigen NLS"}}, "details_in_all_cases": "both partners purified", "key": {"[1]": {"biological_target": "FLAG-h-importin α1 (KPNA2) (human, UniProt P52292 1-529)", "test": "pull-down; GST-h-importin α3 (50 pmol) on GSH beads preincubated with p53 (250 pmol) in TB with 0.1% Triton X-100 at 4 °C for 1 h, washed, then 50 or 500 pmol FLAG-h-importin α8 or α1 added at 4 °C for 1 h; western blot (Fig. 2B)"}, "[2]": {"biological_target": "GST-m-importin α1 (KPNA2) (mouse, UniProt P52293 1-529)", "test": "pull-down; GST fusions immobilized on GSH beads, 100 pmol FLAG-importin α in 200 μL transport buffer (20 mM HEPES pH 7.3, 110 mM potassium acetate, 2 mM magnesium acetate, 1 mM EGTA, 1 mM DTT) with 0.1% Triton X-100, 4 °C, 1 h; western blot with anti-FLAG and anti-GST (Fig. 1A)"}, "[3]": {"biological_target": "T1, GST-h-importin α8 (KPNA7) (human, UniProt A9QM74 1-516)", "T1 construct": "human importin α8 (KPNA7); also called GST-importin α8; IMPα8; source: E. coli Rosetta, purified on GSH beads, bacterially expressed and purified recombinant protein", "T1 sequence (A9QM74 whole entry, the tested form may be a part)": "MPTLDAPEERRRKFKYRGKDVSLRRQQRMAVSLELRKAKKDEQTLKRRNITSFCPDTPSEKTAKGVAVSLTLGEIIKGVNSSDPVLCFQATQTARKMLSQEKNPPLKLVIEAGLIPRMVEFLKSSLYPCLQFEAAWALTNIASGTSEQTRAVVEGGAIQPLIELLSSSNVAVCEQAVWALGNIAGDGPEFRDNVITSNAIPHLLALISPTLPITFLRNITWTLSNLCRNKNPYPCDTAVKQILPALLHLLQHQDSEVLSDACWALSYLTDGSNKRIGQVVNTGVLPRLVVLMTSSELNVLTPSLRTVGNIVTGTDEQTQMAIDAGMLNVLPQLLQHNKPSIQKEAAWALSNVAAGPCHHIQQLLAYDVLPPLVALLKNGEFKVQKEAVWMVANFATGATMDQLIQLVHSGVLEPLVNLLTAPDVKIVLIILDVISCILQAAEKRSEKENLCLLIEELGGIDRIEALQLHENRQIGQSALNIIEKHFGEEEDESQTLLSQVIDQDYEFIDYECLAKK", "test": "pull-down; GST fusions immobilized on GSH beads, 100 pmol FLAG-importin α in 200 μL transport buffer (20 mM HEPES pH 7.3, 110 mM potassium acetate, 2 mM magnesium acetate, 1 mM EGTA, 1 mM DTT) with 0.1% Triton X-100, 4 °C, 1 h; western blot with anti-FLAG and anti-GST (Fig. 1A)"}, "[4]": {"biological_target": "B1", "test": "pull-down; GST-h-importin α3 (50 pmol) on GSH beads preincubated with p53 (250 pmol) in TB with 0.1% Triton X-100 at 4 °C for 1 h, washed, then 50 or 500 pmol FLAG-h-importin α8 or α1 added at 4 °C for 1 h; western blot (Fig. 2B)"}, "[5]": {"biological_target": "B1", "test": "pull-down; GST-h-importin α3 (50 pmol) on GSH beads preincubated with SV40TNLS-GFP (50 pmol) at 4 °C for 1 h, washed, then 50 or 500 pmol FLAG-h-importin α8 or α1 added at 4 °C for 1 h; western blot (Fig. 1B)"}}}
{"binder": "B1", "values": [{"measurement": "binding result", "setting": "[1]", "result": "binds"}]}
{"binder": "B2", "values": [{"measurement": "binding result", "setting": "[2]", "result": "binds"}, {"measurement": "binding result", "setting": "[3]", "result": "binds"}, {"measurement": "binding result", "setting": "[4]", "result": "binds"}]}
{"binder": "B3", "values": [{"measurement": "binding result", "setting": "[5]", "result": "binds"}]}
